B1: Ubiquitin-binding protein CUE5 (Saccharomyces cerevisiae), Q08412 (parent)
chain: MEEKEGIKDSSLLEKSNVPESINEDISKTTDVDLNSDGKKDNDTSAKDGTPKVEEKVNKSSGIDEDEVVTPAEDAKEEEEEHPPLPARRKSEEEPSKENPILQELKDAFPNLEEKYIKAVIIASQGVLSPAFNALLFLSDPESGKDIELPTQPVRKNPEAPARRRQTQLEQDELLARQLDEQFNSSHSRRRNRDRATRSMHEQRRRRHNPNEREQHHEDSEEEDSWSQFVEKDLPELTDRAGRSLQDTANKVSNWISDAYRRNFASGNEQNDNQHGHQDQQEWEPEIVDLSQGGKNSRPQQPERRRFNSFGVQVGDDSLESHGITLHNEDGFEDDEDVPPQLPTRTKSGESTGKVVAETTYIDTPDTETKKKWQPLPPEPLDTTPTKVNAVSRNKKNPDEDEFLINSDDEM
partner: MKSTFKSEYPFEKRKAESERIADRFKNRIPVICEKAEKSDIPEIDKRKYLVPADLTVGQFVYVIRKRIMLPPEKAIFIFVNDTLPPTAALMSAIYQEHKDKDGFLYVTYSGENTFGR
B2: Ubiquitin-binding protein CUE5 (Saccharomyces cerevisiae), Q08412 (parent)
chain: B1 chain

Variants of B1 are the subject of the first assay. The note with it: with atg8_yeast ATG8, P38182.
Consider MEEKEGIKDSSLLEKSNVPESINEDISKTTDVDLNSDGKKDNDTSAKDGTPKVEEKVNKSSGIDEDEVVTPAEDAKEEEEEHPPLPARRKSEEEPSKENPILQELKDAFPNLEEKYIKAVIIASQGVLSPAFNALLFLSDPESGKDIELPTQPVRKNPEAPARRRQTQLEQDELLARQLDEQFNSSHSRRRNRDRATRSMHEQRRRRHNPNEREQHHEDSEEEDSWSQFVEKDLPELTDRAGRSLQDTANKVSNWISDAYRRNFASGNEQNDNQHGHQDQQEWEPEIVDLSQGGKNSRPQQPERRRFNSFGVQVGDDSLESHGITLHNEDGFEDDEDVPPQLPTRTKSGESTGKVVAETTYIDTPDTETKKKAQPLPPEPLDTTPTKVNAVSRNKKNPDEDEFLINSDDEM [W373A], for which the “effect of a mutation on the interaction” value is “decreasing interaction strength”.

Regarding MEEKEGIKDSSLLEKSNVPESINEDISKTTDVDLNSDGKKDNDTSAKDGTPKVEEKVNKSSGIDEDEVVTPAEDAKEEEEEHPPLPARRKSEEEPSKENPILQELKDAFPNLEEKYIKAVIIASQGVLSPAFNALLFLSDPESGKDIELPTQPVRKNPEAPARRRQTQLEQDELLARQLDEQFNSSHSRRRNRDRATRSMHEQRRRRHNPNEREQHHEDSEEEDSWSQFVEKDLPELTDRAGRSLQDTANKVSNWISDAYRRNFASGNEQNDNQHGHQDQQEWEPEIVDLSQGGKNSRPQQPERRRFNSFGVQVGDDSLESHGITLHNEDGFEDDEDVPPQLPTRTKSGESTGKVVAETTYIDTPDTETKKKAAAAPPEPLDTTPTKVNAVSRNKKNPDEDEFLINSDDEM [W373A;Q374A;P375A;L376A], the “effect of a mutation on the interaction” value was “disrupting interaction strength”.

Take MEEKEGIKDSSLLEKSNVPESINEDISKTTDVDLNSDGKKDNDTSAKDGTPKVEEKVNKSSGIDEDEVVTPAEDAKEEEEEHPPLPARRKSEEEPSKENPILQELKDAFPNLEEKYIKAVIIASQGVLSPAFNALLFLSDPESGKDIELPTQPVRKNPEAPARRRQTQLEQDELLARQLDEQFNSSHSRRRNRDRATRSMHEQRRRRHNPNEREQHHEDSEEEDSWSQFVEKDLPELTDRAGRSLQDTANKVSNWISDAYRRNFASGNEQNDNQHGHQDQQEWEPEIVDLSQGGKNSRPQQPERRRFNSFGVQVGDDSLESHGITLHNEDGFEDDEDVPPQLPTRTKSGESTGKVVAETTYIDTPDTETKKKWQPAPPEPLDTTPTKVNAVSRNKKNPDEDEFLINSDDEM [L376A]: the “effect of a mutation on the interaction” value is “decreasing interaction strength”.

Variants of B2 are the subject of the next assay. The note with it: with hd_human HTT.
In the case of MEEKEGIKDSSLLEKSNVPESINEDISKTTDVDLNSDGKKDNDTSAKDGTPKVEEKVNKSSGIDEDEVVTPAEDAKEEEEEHPPLPARRKSEEEPSKENPILQELKDAFPNLEEKYIKAVIIASQGVLSPAFNAAAFLSDPESGKDIELPTQPVRKNPEAPARRRQTQLEQDELLARQLDEQFNSSHSRRRNRDRATRSMHEQRRRRHNPNEREQHHEDSEEEDSWSQFVEKDLPELTDRAGRSLQDTANKVSNWISDAYRRNFASGNEQNDNQHGHQDQQEWEPEIVDLSQGGKNSRPQQPERRRFNSFGVQVGDDSLESHGITLHNEDGFEDDEDVPPQLPTRTKSGESTGKVVAETTYIDTPDTETKKKWQPLPPEPLDTTPTKVNAVSRNKKNPDEDEFLINSDDEM [L135A;L136A], the “effect of a mutation on the interaction” value was “disrupting interaction strength”.
